According to the supplement of paper PMC12783771:
± gives the standard deviation of the averaged measurements.

B1: library; numbered along this chain (parent)
chain: MNIQIGELAKRTACPVVTIRFYEQEGLLPPPGRSRGNFRLYGEEHVERLQFIRHCRSLDMPLSDVRTLLSYRKRPDQDCGEVNMLLDEHIRQVESRIGALLELKHHLVELREACSGARPAQSCGILQGLSDCVCDTRGTTAHPSD

Experiments:
[1] = variants of: B1; experiment: sfGFP reporter fluorescence (15 h) (µM FITC); higher = higher leak; settings: library round: Round 0; ligand: none
Procedure, shortened: (§1)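 PCR-made linear PbrR templates (Echo-normalized to 5 nM) were expressed in BL21 Star (DE3) extract (PANOx-SP) with pPbrR-sfGFP reporter plasmid and 30 μg/mL GamS. Reactions were 1 μL, Echo-assembled, with 1 µM lead chloride, 30 µM zinc acetate or no metal, incubated 15 hr at 30 °C. Endpoint sfGFP fluorescence (485/528 nm, Synergy Neo2) was converted to µM FITC via standard curves in 50 mM sodium borate pH 8.5. Up to three biological replicates.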

[2] = variants of: B1; experiment: sfGFP reporter fluorescence (15 h) (µM FITC); higher = stronger transcriptional activation; settings: library round: Round 0
Procedure, shortened: as §1

Row | Variant | sfGFP reporter fluorescence [1] | sfGFP reporter fluorescence ([2]; ligand: 1 µM Pb) | sfGFP reporter fluorescence ([2]; ligand: 30 µM Zn)
1 | P61H | 0.0658 ± 0.00078 | 0.117 ± 0.0021 | 0.797 ± 0.015
2 | P61K | 0.068 ± 0.00078 | 0.107 ± 0.0031 | 1.6 ± 0.1
3 | L129W | 0.0572 ± 0.0026 | 0.06047 ± 0.00052 | 0.05717 ± 0.00052
4 | G36P | 0.05937 ± 0.00052 | 0.0583 ± 0.001 | 0.0627 ± 0.0036
5 | M60L P61N K104V L107C | 0.535 ± 0.018 | 1.66 ± 1.4 | 3.35 ± 0.1
6 | L62S | 0.0619 ± 0.0015 | 0.063 ± 0.001 | 0.0744 ± 0.001
7 | L62C | 0.061 ± 0.0018 | 0.0651 ± 0.0013 | 0.0995 ± 0.00078
8 | L62F | 0.0599 ± 0.0023 | 0.0652 ± 0.0015 | 0.168 ± 0.0039
9 | L62P | 0.06194 ± 0.00052 | 0.06487 ± 0.00052 | 0.0993 ± 0.0042
10 | L62E | 0.06066 ± 0.00026 | 0.0625 ± 0.0023 | 0.0658 ± 0.0013
11 | T140A | 0.0614 ± 0.0013 | 0.0726 ± 0.0015 | 0.5 ± 0.039
12 | D64V | 0.177 ± 0.0098 | 0.5072 ± 0.0036 | 3.52 ± 0.1
13 | D64M | 2.97 ± 0.48 | 3.46 ± 0.68 | 4.15 ± 0.31
14 | D64N | 0.06652 ± 0.00026 | 0.137 ± 0.006 | 1.64 ± 0.084
15 | D64R | 0.064 ± 0.0039 | 0.112 ± 0.0049 | 1.4 ± 0.036
16 | D64Q | 0.0579 ± 0.001 | 0.0808 ± 0.0029 | 0.781 ± 0.044
17 | G42A | 0.06212 ± 0.00026 | 0.0737 ± 0.0021 | 0.482 ± 0.034
18 | L27Q | 0.06432 ± 0.00026 | 0.0618 ± 0.0013 | 0.06285 ± 0.00026
19 | L27R | 0.0656 ± 0.0026 | 0.0658 ± 0.0013 | 0.0665 ± 0.00078
20 | L27F | 0.0673 ± 0.0023 | 0.104 ± 0.0029 | 0.493 ± 0.035
21 | L27G | 0.0608 ± 0.001 | 0.0597 ± 0.0015 | 0.0649 ± 0.0036
22 | L27N | 0.06322 ± 0.00026 | 0.0616 ± 0.0031 | 0.0601
23 | L27Y | 0.066 | 0.0792 ± 0.0021 | 0.254 ± 0.011

Row | Variant | sfGFP reporter fluorescence [1] | sfGFP reporter fluorescence ([2]; ligand: 1 µM Pb) | sfGFP reporter fluorescence ([2]; ligand: 30 µM Zn)
24 | L27I | 0.0596 ± 0.00078 | 0.0803 ± 0.0015 | 0.555 ± 0.033
25 | L27H | 0.0623 ± 0.0015 | 0.06322 ± 0.00026 | 0.0762 ± 0.001
26 | S130A | 0.0599 ± 0.0013 | 0.0821 ± 0.001 | 0.862 ± 0.14
27 | Y22Q | 0.0627 ± 0.001 | 0.0612 | 0.0607 ± 0.0023
28 | Y22H | 0.063 ± 0.0015 | 0.06249 ± 0.00026 | 0.0651 ± 0.0018
29 | Y22D | 0.06066 ± 0.00026 | 0.0618 ± 0.0018 | 0.06011 ± 0.00052
30 | P30K | 0.0632 ± 0.0029 | 0.0845 ± 0.0013 | 1.03 ± 0.023
31 | P30W | 0.0634 ± 0.0015 | 0.0722 ± 0.0031 | 0.33 ± 0.015
32 | H89R | 0.0685 ± 0.0042 | 0.0936 ± 0.0054 | 0.975 ± 0.017
33 | H89F | 0.0581 ± 0.0039 | 0.0566 ± 0.0039 | 0.063 ± 0.0021
34 | H89Y | 0.0596 ± 0.0018 | 0.0574 ± 0.0018 | 0.0566 ± 0.0023
35 | E112V | 0.0572 ± 0.0015 | 0.06597 ± 0.00052 | 0.343 ± 0.0078
36 | E112D | 0.0612 ± 0.0021 | 0.0722 ± 0.0026 | 0.565 ± 0.043
37 | E112W | 0.0579 ± 0.0015 | 0.0627 ± 0.001 | 0.152 ± 0.014
38 | E112M | 0.06212 ± 0.00026 | 0.0938 ± 0.0093 | 0.9465 ± 0.007
39 | E112K | 0.0706 ± 0.00078 | 0.1164 ± 0.00078 | 2.4 ± 0.25
40 | E88A | 0.061 ± 0.0034 | 0.0859 ± 0.0091 | 0.965 ± 0.07
41 | V46Y | 0.0588 ± 0.00078 | 0.0861 ± 0.0067 | 0.6826 ± 0.0049
42 | V46F | 0.05626 ± 0.00026 | 0.0814 ± 0.0015 | 0.66 ± 0.074
43 | R39I | 0.0572 ± 0.0015 | 0.0566 ± 0.0018 | 0.0726 ± 0.0042
44 | R39G | 0.0555 ± 0.00078 | 0.0563 ± 0.0023 | 0.0563 ± 0.0018
45 | R39V | 0.0588 ± 0.00078 | 0.05882 ± 0.00026 | 0.05736 ± 0.00026
46 | R39Y | 0.05992 ± 0.00026 | 0.0605 ± 0.0036 | 0.0608 ± 0.0047

Row | Variant | sfGFP reporter fluorescence [1] | sfGFP reporter fluorescence ([2]; ligand: 1 µM Pb) | sfGFP reporter fluorescence ([2]; ligand: 30 µM Zn)
47 | R39A | 0.0651 ± 0.0018 | 0.0599 ± 0.0029 | 0.0678 ± 0.0021
48 | R39H | 0.0625 ± 0.0018 | 0.0652 ± 0.0031 | 0.0663 ± 0.0047
49 | I3N | 0.0599 ± 0.0013 | 0.0579 ± 0.0021 | 0.1142 ± 0.00026
50 | I3F | 0.05552 ± 0.00026 | 0.0643 ± 0.0029 | 0.587 ± 0.019
51 | I3M | 0.0641 ± 0.0015 | 0.0768 ± 0.0018 | 1.27 ± 0.15
52 | G6A | 0.0504 ± 0.0018 | 0.0491 ± 0.00052 | 0.09016 ± 0.00052
53 | G6R | 0.0605 ± 0.001 | 0.0632 ± 0.00078 | 0.116 ± 0.0039
54 | G6K | 0.0625 ± 0.0013 | 0.06414 ± 0.00052 | 0.222 ± 0.0031
55 | G6L | 0.0607 ± 0.00078 | 0.06157 ± 0.00052 | 0.0682 ± 0.001
56 | G6T | 0.0594 ± 0.0021 | 0.0608 ± 0.0015 | 0.0799 ± 0.0047
57 | G6D | 0.06377 ± 0.00052 | 0.06047 ± 0.00052 | 0.0621 ± 0.00078
58 | P143F | 0.0568 ± 0.0015 | 0.0819 ± 0.0039 | 0.777 ± 0.052
59 | P143N | 0.0568 ± 0.0015 | 0.0718 ± 0.0057 | 0.865 ± 0.12
60 | P143C | 0.0574 ± 0.0013 | 0.07678 ± 0.00026 | 0.495 ± 0.12
61 | R111D | 0.0585 ± 0.0013 | 0.06707 ± 0.00052 | 0.215 ± 0.0029
62 | R111N | 0.0583 | 0.0684 ± 0.00078 | 0.391 ± 0.032
63 | R111Q | 0.0572 ± 0.001 | 0.0618 ± 0.0013 | 0.275 ± 0.0083
64 | R111E | 0.05864 ± 0.00052 | 0.0684 ± 0.00078 | 0.267 ± 0.013
65 | R111Y | 0.0566 ± 0.0023 | 0.0651 ± 0.00078 | 0.28 ± 0.029
66 | G128K | 0.122 ± 0.0031 | 0.192 ± 0.007 | 3.05 ± 0.22
67 | G128M | 0.105 ± 0.0062 | 0.311 ± 0.025 | 3.04 ± 0.38
68 | L107S | 0.12 ± 0.0091 | 0.5454 ± 0.0042 | 2.27 ± 0.042
69 | L107P | 0.0568 ± 0.0015 | 0.0528 ± 0.0052 | 0.0621 ± 0.0018

Row | Variant | sfGFP reporter fluorescence [1] | sfGFP reporter fluorescence ([2]; ligand: 1 µM Pb) | sfGFP reporter fluorescence ([2]; ligand: 30 µM Zn)
70 | L107T | 0.0797 ± 0.0054 | 0.282 ± 0.015 | 1.93 ± 0.22
71 | L107W | 0.0599 ± 0.0013 | 0.0638 | 0.118 ± 0.0013
72 | L107M | 0.0546 ± 0.0015 | 0.0605 ± 0.0026 | 0.371 ± 0.046
73 | C134W | 0.145 ± 0.0042 | 0.4695 ± 0.0031 | 1.92 ± 0.047
74 | C134K | 0.0742 ± 0.00078 | 0.0891 ± 0.0021 | 1.71 ± 0.084
75 | C134P | 0.0667 ± 0.00052 | 0.0847 ± 0.011 | 1.54 ± 0.058
76 | E7K | 0.0662 ± 0.00078 | 0.113 ± 0.0023 | 1.99 ± 0.1
77 | E7H | 0.06139 ± 0.00026 | 0.083 ± 0.0013 | 0.638 ± 0.036
78 | E7P | 0.061 ± 0.0013 | 0.0709 ± 0.00078 | 0.3319 ± 0.0018
79 | D135Q | 0.0574 ± 0.0023 | 0.0826 ± 0.0023 | 1.28 ± 0.13
80 | D135T | 0.0608 | 0.088 ± 0.001 | 1.13 ± 0.12
81 | D135Y | 0.0676 ± 0.0039 | 0.116 ± 0.0073 | 1.46 ± 0.17
82 | D135F | 0.0718 ± 0.001 | 0.138 ± 0.0065 | 1.49 ± 0.28
83 | M60L D64K G128M | 3.44 ± 0.06 | 4.33 ± 0.25 | 4.46 ± 0.12
84 | M60V | 0.0715 ± 0.0015 | 0.1459 ± 0.001 | 1.05 ± 0.012
85 | M60D | 0.0616 ± 0.001 | 0.0619 ± 0.0015 | 0.063 ± 0.0015
86 | M60Y | 0.0621 ± 0.0013 | 0.0662 ± 0.0013 | 0.12 ± 0.00078
87 | M60E | 0.107 ± 0.00052 | 0.463 ± 0.039 | 1.67 ± 0.012
88 | M60P | 0.0605 | 0.05974 ± 0.00052 | 0.05516 ± 0.00026
89 | M60L | 0.1063 ± 0.00052 | 0.295 ± 0.035 | 2.8 ± 0.031
